# Experiments:
# [1] = molecular target: AT1R-eYFP_N1 (wild-type angiotensin II type 1 receptor) (UniProt P30556); assay: FRET or BRET; arrestin recruitment in live HEK293 cells: Nluc-arr3 (donor) and AT1R-eYFP (acceptor), stimulated with agonist peptide (angiotensin II; 0.01 nM to 10 µM)
# [2] = molecular target: MOR-eYFP_pVitro2 (wild-type µ-type opioid receptor) (UniProt P35372); assay: FRET or BRET; arrestin recruitment in live HEK293 cells: Nluc-arr3 (donor) and MOR-eYFP (acceptor), stimulated with endomorphin-1 (0.01 nM to 10 µM)
# [3] = molecular target: FLAG-CRF1R-eGFP_N1 C188^3.29A (human (by the printed accession)) (UniProt P34998); assay: FRET or BRET; arrestin recruitment in live HEK293 cells: Nluc-arr3 (donor) and FLAG-CRF1R-eGFP (acceptor), stimulated with CRF (up to 10 µM)
# Chain of FLAG-CRF1R-eGFP_N1 C188^3.29A (human (by the printed accession)) (P34998 24-415 C188A): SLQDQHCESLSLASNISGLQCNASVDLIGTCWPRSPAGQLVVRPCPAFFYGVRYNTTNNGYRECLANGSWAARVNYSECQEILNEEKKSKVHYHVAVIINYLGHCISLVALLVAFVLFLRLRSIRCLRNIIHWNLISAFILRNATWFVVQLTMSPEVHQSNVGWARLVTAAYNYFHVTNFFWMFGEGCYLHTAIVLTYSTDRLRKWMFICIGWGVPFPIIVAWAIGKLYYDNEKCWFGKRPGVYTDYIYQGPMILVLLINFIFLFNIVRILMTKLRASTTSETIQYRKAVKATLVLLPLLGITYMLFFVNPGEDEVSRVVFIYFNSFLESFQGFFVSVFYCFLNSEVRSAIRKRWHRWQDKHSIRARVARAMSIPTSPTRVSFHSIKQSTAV
# [4] = molecular target: FLAG-CRF1R-eGFP_N1 (wild-type corticotropin-releasing factor receptor 1, R2 isoform) (human (by the printed accession)) (UniProt P34998); assay: as above
# Chain of FLAG-CRF1R-eGFP_N1 (wild-type corticotropin-releasing factor receptor 1, R2 isoform) (human (by the printed accession)) (P34998 24-415): as the sequence (P34998 24-415 C188A) above, with A165C counted along it
# [5] = molecular target: Y1R-eYFP_N1 (wild-type neuropeptide Y1 receptor) (human) (UniProt P25929); assay: FRET or BRET; arrestin recruitment in live HEK293 cells: Nluc-arr3 (donor) and receptor-eYFP (acceptor) co-transfected, stimulated with NPY (0.01 nM to 10 µM), HBSS with 20 mM HEPES pH 7.4, read 5, 10 and 15 min after stimulation
# Chain of Y1R-eYFP_N1 (wild-type neuropeptide Y1 receptor) (human) (P25929 whole entry): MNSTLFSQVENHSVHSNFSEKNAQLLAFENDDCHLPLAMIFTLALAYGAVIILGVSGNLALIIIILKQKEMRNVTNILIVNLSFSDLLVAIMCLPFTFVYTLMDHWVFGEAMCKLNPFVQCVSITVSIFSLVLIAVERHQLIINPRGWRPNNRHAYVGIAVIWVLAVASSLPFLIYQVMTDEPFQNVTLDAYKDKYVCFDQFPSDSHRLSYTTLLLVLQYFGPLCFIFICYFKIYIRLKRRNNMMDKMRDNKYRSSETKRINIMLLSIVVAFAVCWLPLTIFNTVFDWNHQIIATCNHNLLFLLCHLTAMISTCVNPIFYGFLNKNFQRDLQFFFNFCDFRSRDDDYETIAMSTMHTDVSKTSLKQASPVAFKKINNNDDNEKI
# [6] = molecular target: HA-Y2R-eYFP_N1 (wild-type neuropeptide Y2 receptor) (human) (UniProt P49146); assay: as above
# [7] = molecular target: MOR-eYFP_pVitro2 (wild-type µ-type opioid receptor) (UniProt P35372); assay: FRET or BRET; arrestin recruitment in live HEK293 cells: Nluc-arr3 (donor) and MOR-eYFP (acceptor), stimulated with β-endorphin (0.01 nM to 10 µM)
# [8] = molecular target: Nluc-Y2R-eYFP_N1 (wild-type neuropeptide Y2 receptor) (human) (UniProt P49146); assay: FRET or BRET; NanoBRET ligand binding: membrane preparations of HEK293 cells with Nluc-Y1/2R-eYFP, TAMRA-labeled peptide titrated, 10 min at room temperature, HBSS with 20 mM HEPES pH 7.4, 0.1% BSA; unspecific binding (excess unlabeled NPY or antagonist) subtracted; biphasic fit
# [9] = molecular target: Nluc-Y1R-eYFP_N1 C113^3.25A (human) (UniProt P25929); assay: as above
# Chain of Nluc-Y1R-eYFP_N1 C113^3.25A (human) (P25929 whole entry C113A): as the sequence (P25929 whole entry) above, with C113A counted along it
# [10] = molecular target: HA-Y2R-eYFP_N1 C123^3.25A (human) (UniProt P49146)
# [11] = molecular target: HA-Y2R-eYFP_N1 C203^45.50A (human) (UniProt P49146)
# [12] = molecular target: Y1R-eYFP_N1 C198^45.50A (human) (UniProt P25929)
# Chain of Y1R-eYFP_N1 C198^45.50A (human) (P25929 whole entry C198A): as the sequence (P25929 whole entry) above, with C198A counted along it
# [13] = molecular target: Y1R-eYFP_N1 C113^3.25A (human) (UniProt P25929)
# Chain of Y1R-eYFP_N1 C113^3.25A (human) (P25929 whole entry C113A): as the sequence (P25929 whole entry) above, with C113A counted along it
# Chain of Nluc-tagged bovine arrestin3 (P32120 whole entry): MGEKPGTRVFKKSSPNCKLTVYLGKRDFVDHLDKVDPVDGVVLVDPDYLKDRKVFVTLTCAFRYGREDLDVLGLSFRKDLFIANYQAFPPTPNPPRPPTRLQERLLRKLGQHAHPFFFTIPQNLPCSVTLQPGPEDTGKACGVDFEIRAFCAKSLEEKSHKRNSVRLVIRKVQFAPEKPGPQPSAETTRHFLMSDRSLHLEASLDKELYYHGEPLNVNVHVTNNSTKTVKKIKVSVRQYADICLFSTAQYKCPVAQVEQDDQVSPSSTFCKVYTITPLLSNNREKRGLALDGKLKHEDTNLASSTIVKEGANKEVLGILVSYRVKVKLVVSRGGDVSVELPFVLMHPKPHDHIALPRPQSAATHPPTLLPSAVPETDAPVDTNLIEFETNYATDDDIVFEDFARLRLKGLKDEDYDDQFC
# Chain of AT1R-eYFP_N1 (wild-type angiotensin II type 1 receptor) (P30556 whole entry): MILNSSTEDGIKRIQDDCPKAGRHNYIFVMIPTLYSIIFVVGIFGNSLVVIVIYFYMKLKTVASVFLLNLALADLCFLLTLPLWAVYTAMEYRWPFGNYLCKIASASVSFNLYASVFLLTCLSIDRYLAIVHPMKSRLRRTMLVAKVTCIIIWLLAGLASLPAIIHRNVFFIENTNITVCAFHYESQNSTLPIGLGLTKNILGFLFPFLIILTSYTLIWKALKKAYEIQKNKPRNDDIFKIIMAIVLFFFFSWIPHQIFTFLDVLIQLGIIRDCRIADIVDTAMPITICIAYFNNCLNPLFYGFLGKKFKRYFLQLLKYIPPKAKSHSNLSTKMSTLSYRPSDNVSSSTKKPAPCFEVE
substance,measurement,setting,value
Nluc-tagged bovine arrestin3 (from UniProt P32120 1-420) (natural protein),EC50 of the agonist for arrestin3 recruitment,[1],3.6 nM
same,EC50 of the agonist endomorphin-1 for arrestin3 recruitment,[2],375 nM
same,fold shift in the agonist's EC50 for arrestin3 recruitment against wild-type CRF1R,[3],8 fold
same,EC50 of the agonist CRF for arrestin3 recruitment,[4],37 nM
same,EC50 of the agonist NPY for arrestin3 recruitment,[5],8 nM
same,EC50 of the agonist NPY for arrestin3 recruitment,[6],96 nM
same,EC50 of the agonist β-endorphin for arrestin3 recruitment,[7],> 3000 nM
K^18-TAMRA-NPY (peptide),Kd of the high-affinity state,[8],2.3 nM
same,Kd of the low-affinity state,[8],267 nM
same,fold shift in Kd against wild-type Y1R,[9],7 fold
neuropeptide Y (NPY) (from UniProt P01303 29-64),cAMP reporter gene assay (Gi/o pathway): shift of the EC50 of NPY against wild-type Y2R; full activation at 10 µM NPY,[10],10000 fold
same,cAMP reporter gene assay (Gi/o pathway): shift of the EC50 of NPY against wild-type Y2R; full activation at 10 µM NPY,[11],10000 fold
same,inositol monophosphate accumulation via chimeric G-protein: shift of EC50 against wild-type Y1R (57% loss of Emax),[12],50 fold
same,inositol monophosphate accumulation via chimeric G-protein: shift of EC50 against wild-type Y1R (41% loss of Emax),[13],26 fold

# — PMC10419011
